In the nanobody polyreactivity screen of Harvey et al. (2022):

Experiment: yeast display, Sf9 membrane polyspecificity reagent, FACS + sequencing; frameworks hold sequencing errors
In short: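 Using colony PCR, genes from sorted yeast display clones were amplified, then sequenced on MiSeq at 2 × 250 and filtered by CDR length. The clones had been stained with 10% biotinylated, detergent-solubilized Sf9 membrane reagent for 1 hour at 4 °C and sorted by FACS into low and high (top ~1%) gates on anti-HA and streptavidin fluorescence. Polyreactivity labels come from the gate of origin.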

Row | Sequence | polyreactivity (PSR sort gate)
1 | QVQLVESGGGLVQAGGSLRLSCAASGYIFTIYAMGWYRQAPGKERELVAAITWSGATTYYADSVKGRFTISRDNAKNTVYLQMNSLKPEDTAVYYCNADYWHYYEDYDSWGQGTQVTVSS | low polyreactivity
2 | QVQLVESGGGLVQAGGSLRLSCAASGRTVEQNAMGLYRQAPGKERELVASITSVGSTDYADSVKGRFTISRDNAKNTVYLQMNSLKPEDTAVYYCAKTLGSQNYDFDYWGKGTQVTVSS | low polyreactivity
3 | QVQLVESGGCLDQAGGSLRLSWDASGRTFDFNAIGWYRQAPGKERELVAAITHSAGRTYYADSVKGRFTLSRDIAKNTVYLQMNSLKREDTAVYYCATRYYNYARTSYGYWGQGTQVTVSS | high polyreactivity
4 | QVQLVESGGGLVQAGGSLRLSCAASGITFDHYAMGWYRQAPGKEREFVAAIDDIGGDTYYADSVKGRFTISRDNAKNTVYLQMNSLKPEDTAVYYCAADYGYYSRFYYWGQGTQVTVSS | low polyreactivity
5 | QVQLVESGGGLVQAGGSLRLSCAASGITLVTYAMGWYRQAPGKERELVAAISRSGGRTYYADSVKGRFTISRDNAKNTVDLQMNSLKPEDTAVYYCATRYHVGKDLYGYWGQGTQVTVSS | high polyreactivity
6 | QVQLVESGGGLVQAGGSLRLSCAASGSTFRVYAMGWYRQAPGTERELVATINVSGGSTYYADSVKGRFTISRDNAKNTVYLQMNSLKPEDTAVYYCAKEDGAYGYPFDYWGQGTQVTVSS | low polyreactivity
7 | QVKLVESGGGLVQAGGSLRLSCAASGGNFYRYAMGWYRQAPGKERELVAAITRGDSTNYADSVKGRFTISRDNAKNTVYLQMNSLKPEDTAVYYCNAAVSARQNDTGGFQGDYWGQGTQVTVSS | low polyreactivity
8 | QVQLVESGGGLVQAGGSLRLSCAASGNIFSINAMGWYRQAPGKERELVAAISWSGGSTYYADSVKGRFTISRDNAKNTVYLQMNSLKPEDTAVYYCAADVYYLGYYEYYYWGQGTQVTVSS | high polyreactivity
9 | QVQLVESGGGLVQAGGSLRLSSAASGRTFTHYAMGWYSQAPGKERELGASISDGGRTHYADSVKGRFTISRDNAKNTVSLQMNSLKPVDPAVYYCATDRYPTRRYDYWGQGSQVTVSS | low polyreactivity
10 | QDQLVESGGGLVQAGGSLRLSCAASGRTFTGYTMGWYRQAPGKERELVASISSSGGRTYYADSVKGRFTISRDNAKNTVFLQMKSLKPEDTAVYYCAKRGAYGYGYYSYDYWGQGTQVTVSS | high polyreactivity
11 | QVQLVESGGGLVQAGGSLRLSCAASGFIFRGYAMGLYRQAPGKERELVAAISKSGGSTYYADSVKGRFTISRDNAKNTVYLQMNSLKPEDTAVYYCATDILIDGFYYDYWGQGTQVTVSS | high polyreactivity
12 | QVQLVESGGGLVQAGGSLRLSCAASGSTFKWYAMGWYRQAPGKERELVAAITRGGSTSYADSVKGRFTISLDNAKNTVYLQMNSLKPEDTAVYYCAADYHYTKSMYYWGQGTQVTVSS | low polyreactivity
13 | QVQLVESGGGLVQAGGSLRLSCAASGRIFKIYAMGWYRQAPGKEREFVATISSGGRTNYADSVKGRFTISRDNAKNTVYLQMNSLKPEDTAVYYCNAGARVLYETESFDYWGQGIQVTVSS | low polyreactivity
14 | QVQLVESGGGLVQAGGRLRISCAASGSTFLDNAMGWYRQAPGKERELVASITSSGGNTYYADSVKGRFTISRDNAKNTVYLQMNRLKPEDTAVYYCAADAASYWGSNSANYDYDYWGQGTQVTVSS | low polyreactivity
15 | QVQLVESGGGLVQAGGSLRLSCAASGLTFDQYVMGWYRQAPGKERELVAAISRRGGGTYYADSVKGRFTISRDNAKNTVYLQMNSLKPEDTAVYYCNTDQAWRSWRGNYPFLTGNYWGQGTQVTVSS | high polyreactivity
16 | QVQLVESGGGLVQAGGSLRLSCAASGSIFDVNAMGWYRQAPGKERELVAAISDSGGSTYYADSVKGRFTISRDNAKNTVYLQMNSLKPEDTAVYYCNADWYWYNYYDFDYWGQGTQVTVSS | low polyreactivity
17 | QVQLVESGGGLVQAGGSLRLSCAASGSILLGYAMGWYRQAPGKERELVAAITFRGGSTYYADSVKGRFTISRDNAKNTVYLQMNSLKPEATAVYYCAKVWWLYSSTYLRYYWGQGTQVTVSS | low polyreactivity
